In PMC9158661 one finds stoichiometry N data, which are given here for 1 substance.

The target in the test is extracellular Cu/Zn superoxide dismutase from Onchocerca volvulus (OvEC-SOD) (Onchocerca volvulus). The experiment in a line: SAXS; monodisperse solutions after affinity-tag cleavage, four concentrations 0.5-7.5 mg/ml; molecular mass from forward scattering with bovine serum albumin as reference; compared with the crystallographic dimer (CRYSOL, SREFLEX, GASBOR).

Substance “extracellular Cu/Zn superoxide dismutase from Onchocerca volvulus (OvEC-SOD) (enzyme)” yielded a stoichiometry N of 2.
